Data on one substance can be found in US11464871B2, “Methods and systems for polymer precipitation and generation of particles” (priority 2012, dated 2022).

The data set is described as follows: Physical stability and re-dispersion of chilled-acetone precipitated polymer conjugate particles. It is filed as physicochemical. The method, then: A 600 mL beaker of 300 mL of acetone with magnetic stir bar was pre-chilled to −78° C. in a dry ice/acetone bath. A solution of polymer conjugate HG6 (2 grams), obtained without further preparation from Example 3, was added dropwise over a 4 minute period into the beaker with chilled acetone with stirring and maintained in the dry ice/acetone bath. Individual free flowing polymer particles (resembling chards or flakes) were formed (FIG. 3) and remained in suspension under stirring conditions. After 25 minutes, the chilled acetone was decanted and replaced with fresh pre-chilled acetone (300 mL at −78° C.) and stirred for an additional 30 minutes to afford a suspension of polymer particles in chilled acetone.
From the polymer particles/chilled acetone suspension further steps were conducted. First, a portion of polymer particles (still in acetone) was removed from the suspension and allowed to dry at room temperature. […] A second portion of polymer particles (still in acetone) was removed from the suspension and frozen in liquid nitrogen (N2) and lyophilized for 24 hours.

On to Poly(CDDCys-PA-PEG)-Gly-CPT [HG6], for which the “Re-dispersion of lyophilized polymer particles in water” value (frozen in liquid N2, lyophilized 24 hours, water, even after 24 hours and sonication) is given as “did not re-disperse in water”. Besides, under “lyophilized particles exposed to the ambient environment”, the “Physical stability of lyophilized polymer particles in ambient environment” value is recorded as “melted into yellow oil”. Moreover, the “Re-dispersion of lyophilized polymer particles with acetone” value (lyophilized particles, with addition of acetone) is on record as “re-dispersion was successful”. Besides, the “Physical stability of precipitated polymer particles allowed to dry” value (portion removed from acetone suspension, dried at room temperature) was “melted into yellow oil”. The “Physical stability of polymer particle suspension in acetone” value (still in acetone, warmed to room temperature for 72 hours) is “remained a stable free flowing suspension”.
